# Experimental data taken from patent US20220064275A1 (SCHOLAR ROCK, published 2022).
# Substitutions are numbered along the chain they refer to.
# B1: Ab6 Fab (Fab, V domains shown)
# VH: EVQLVESGGGLVQPGGSLRLSCTASGFTFSSFSMDWVRQAPGKGLEWVSYISPSADTIYYADSVKGRFTISRDNAKNTLYLQMNSLRAEDTAVYYCARGVLDYGDMLMPWGQGTLVTVSS
# VL: DIQMTQSPSSLSASVGDRVTITCQASQDITNYLNWYQQKPGKAPKLLIYDASNLETGVPSRFSGSGSGTDFTFTISSLQPEDIATYYCQQADNHPPWTFGGGTKVEIK
# notes: Fab of Ab6
# B2: Ab11 (antibody, IgG4, V domains shown)
# VH: EVQLLESGGGLVQPGGSLRLSCAASGFTFRNYAMSWVRQAPGKGLEWVSSISGSGGATYYADSVKGRFTISRDNSKNTLYLQMNSLRAEDTAVYYCARVSSGHWDFDYWGQGTLVTVSS
# VL: DIQLTQSPSSLSASVGDRVTITCRASQSISSYLNWYQQKPGKAPKLLIYAASNLQSGVPSRFSGSGSGTDFTLTISSLQPEDFATYYCQQTYTVPLTFGGGTKVEIK
# B3: Ab35 (antibody, IgG4, V domains shown)
# VH: B2 VH with G102Y, H103L
# VL: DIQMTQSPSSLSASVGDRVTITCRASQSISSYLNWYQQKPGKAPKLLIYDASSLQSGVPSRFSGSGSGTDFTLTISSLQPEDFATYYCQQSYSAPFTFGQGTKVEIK
# B4: Ab12 (antibody, IgG4, V domains shown)
# VH: B2 VH with E1Q, L5V, L11V, G16R, R30S, N31D, S35V, S50A, G56F, A57T
# VL: B2 VL
# B5: Ab19 (antibody, IgG4, V domains shown)
# VH: QVQLVESGGGVVQPGRSLRLSCAASGFTFSSFAMTWVRQAPGKGLEWVSAISGSGAATYFADSVKGRFTISRDNSKNTLYLQMNSLRAEDTAVYYCARVSSGHWDFDEWGQGTLVTVSS
# VL: B2 VL
# B6: Ab20 (antibody, IgG4, V domains shown)
# VH: B2 VH with R30S, N31A, S35T, S50A, A57V, F106Y
# VL: B2 VL
# B7: Ab29 (antibody, IgG4, V domains shown)
# VH: EVQLVESGGGLVQPGRSLRLSCAASGFTFSSFAMNWVRQAPGKGLEWVSYISPDASTIYYAGSVKGRFTISRDNAKNSLYLQMNSLRAEDTAVYYCVRAVLDYGDMLDPWGQGTLVTVSS
# VL: B1 VL
# B8: Ab32 (antibody, IgG4, V domains shown)
# VH: B1 VH with T23A, D35N, L101W, Y103M, M108D
# VL: B1 VL
# B9: Ab31 (antibody, IgG4, V domains shown)
# VH: B1 VH with T23A, S54D, D56S, G99A, M108D
# VL: B1 VL
# B10: Ab33 (antibody, IgG4, V domains shown)
# VH: B1 VH with T23A, D35N, R98H, M108D
# VL: B1 VL
# B11: Ab26 (antibody, IgG4, V domains shown)
# VH: B1 VH with T23A, S54D, D56S, M108D
# VL: B1 VL
# B12: Ab4 (antibody, IgG4, V domains shown)
# VH: B1 VH with T23A, F32Y, D35N, P53S, A55S, D56S, T78S, M108D
# VL: B1 VL
# notes: also called parental lead antibody of Ab6
# B13: Ab2 Fab (Fab, V domains shown)
# VH: B2 VH with R30A, N31D, S35T, S50A, G56A, Y60F
# VL: B2 VL
# notes: Fab of Ab2; C-terminally 6x-His tagged in the crystallography work
# Target: T1, human proTGFβ1 C4S (human, UniProt P01137 30-390)
# T1 construct: Small latent complex without presenting molecule; the cysteine that links to presenting molecules is changed to serine; also called small latent complex proTGFβ1 C4S; latent TGFβ1
# Assay: HDX-MS
# Experimental: In the non-deuterated experiments, each sample was mixed with sample buffer (1:15, v/v) at room temperature, then mixed with 1:1 (v/v) quenching buffer (100 mM sodium phosphate, 4 M guanidine HCl, 0.5 M TCEP) at 0° C. Quenched samples were immediately injected into a nanoACQUITY UPLC™ system with HDX technology (Waters Corp., Milford, Mass., USA) for on-column pepsin digestion. The eluent was directed into a SYNAPT® G2 HDMS mass spectrometer (Waters Corp., Milford, Mass., USA) for analysis in MSE mode. For H/D exchange experiments, each sample was mixed with labeling buffer (20 mM HEPES, 150 mM NaCl in deuterium oxide, pD 7.5) (1:15, v/v) to start the labeling reactions at 25° C. Five aliquots of each sample were labeled at various time intervals: 10 s, 1 min, 10 min, 1 h, and 2 h. At the end of each labeling time point, the reaction was quenched by adding 1:1 (v/v) quenching buffer, and the quenched samples were injected into the Waters H/DX-MS system for analysis. Between each sample run, a clean blank was run by injecting pepsin wash buffer (1.5 M guanidine HCl, 4% acetonitrile, 0.8% formic acid) into the H/DX-MS system.
# In HDX-MS, the regions of an antigen that are tightly bound by an antibody are protected from proton exchange, due to protein-protein interaction, while regions that are exposed to solvent can readily undergo proton exchange. […]
row,binding result,Binder
1,binds,B1

# Target: T2, human LTBP1-proTGFβ1 complex (human, UniProt Q14766 873-1507)
# T2 construct: range 873-1507; biotinylated in Octet and MSD-SET; also called hLTBP1-proTGFβ1; hLTBP1
# T2 sequence (Q14766 873-1507 limits assumed, chain 1 of 2): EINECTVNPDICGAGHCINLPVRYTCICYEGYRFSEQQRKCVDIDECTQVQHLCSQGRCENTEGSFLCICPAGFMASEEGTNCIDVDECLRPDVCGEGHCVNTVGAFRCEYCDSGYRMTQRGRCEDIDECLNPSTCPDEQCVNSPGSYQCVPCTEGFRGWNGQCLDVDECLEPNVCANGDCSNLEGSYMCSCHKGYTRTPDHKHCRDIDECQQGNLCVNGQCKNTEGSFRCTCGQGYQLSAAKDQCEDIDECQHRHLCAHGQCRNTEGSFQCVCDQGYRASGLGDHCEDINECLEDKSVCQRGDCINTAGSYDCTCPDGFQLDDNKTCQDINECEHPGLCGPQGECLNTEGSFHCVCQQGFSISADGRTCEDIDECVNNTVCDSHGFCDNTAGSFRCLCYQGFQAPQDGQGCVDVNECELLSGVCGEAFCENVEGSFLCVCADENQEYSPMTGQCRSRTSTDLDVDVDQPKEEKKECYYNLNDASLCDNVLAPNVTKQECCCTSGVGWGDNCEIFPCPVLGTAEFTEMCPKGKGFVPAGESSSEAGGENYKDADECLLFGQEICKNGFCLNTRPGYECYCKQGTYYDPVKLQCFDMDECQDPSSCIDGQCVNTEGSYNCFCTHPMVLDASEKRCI
# T2 sequence (chain, as listed by the source limits assumed, chain 2 of 2): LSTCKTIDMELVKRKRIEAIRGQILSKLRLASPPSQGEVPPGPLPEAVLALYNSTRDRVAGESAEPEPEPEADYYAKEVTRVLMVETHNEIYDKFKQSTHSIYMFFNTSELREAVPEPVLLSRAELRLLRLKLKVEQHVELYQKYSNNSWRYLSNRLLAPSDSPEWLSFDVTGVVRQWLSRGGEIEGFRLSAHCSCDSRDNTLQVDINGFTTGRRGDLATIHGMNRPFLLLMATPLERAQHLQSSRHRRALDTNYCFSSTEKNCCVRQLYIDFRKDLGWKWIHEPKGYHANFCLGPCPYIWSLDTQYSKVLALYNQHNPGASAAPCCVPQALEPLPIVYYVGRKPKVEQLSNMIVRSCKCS
# Assay: BLI (Octet)
row,Kd [nM],Binder
1,0.167,B2
2,0.159,B3
3,0.157,B4
4,0.189,B5
5,0.192,B6
6,0.189,B7
7,0.269,B8
8,0.236,B9
9,0.179,B10
10,0.221,B11

# Target: T3, human LTBP3-proTGFβ1 complex (human, UniProt Q9NS15 866-1039)
# T3 construct: range 866-1039; also called hLTBP3-proTGFβ1; hLTBP3
# Assay: BLI (Octet)
row,Kd [nM],Binder
1,0.154,B2
2,0.169,B3
3,0.183,B4
4,0.156,B5
5,0.131,B6
6,0.121,B7
7,0.215,B8
8,0.181,B9
9,0.111,B10
10,0.173,B11

# Target: T4, human GARP-proTGFβ1 complex (human, UniProt Q14392 20-627; P01137 30-390)
# T4 construct: also called hGARP-proTGFβ1; hGARP
# Assay: BLI (Octet)
row,Kd [nM],Binder
1,0.842,B2
2,7.37,B3
3,7.01,B4
4,11.2,B5
5,0.884,B6
6,0.307,B7
7,0.496,B8
8,0.581,B9
9,0.265,B10
10,0.625,B11

# Target: T5, human LRRC33-proTGFβ1 complex (human, UniProt Q86YC3 19-650; P01137 30-390)
# T5 construct: also called hLRRC33-proTGFβ1; hLRRC33
# T5 sequence (Q86YC3 other isoform, or with tags, fused parts or gaps limits assumed, chain 1 of 2): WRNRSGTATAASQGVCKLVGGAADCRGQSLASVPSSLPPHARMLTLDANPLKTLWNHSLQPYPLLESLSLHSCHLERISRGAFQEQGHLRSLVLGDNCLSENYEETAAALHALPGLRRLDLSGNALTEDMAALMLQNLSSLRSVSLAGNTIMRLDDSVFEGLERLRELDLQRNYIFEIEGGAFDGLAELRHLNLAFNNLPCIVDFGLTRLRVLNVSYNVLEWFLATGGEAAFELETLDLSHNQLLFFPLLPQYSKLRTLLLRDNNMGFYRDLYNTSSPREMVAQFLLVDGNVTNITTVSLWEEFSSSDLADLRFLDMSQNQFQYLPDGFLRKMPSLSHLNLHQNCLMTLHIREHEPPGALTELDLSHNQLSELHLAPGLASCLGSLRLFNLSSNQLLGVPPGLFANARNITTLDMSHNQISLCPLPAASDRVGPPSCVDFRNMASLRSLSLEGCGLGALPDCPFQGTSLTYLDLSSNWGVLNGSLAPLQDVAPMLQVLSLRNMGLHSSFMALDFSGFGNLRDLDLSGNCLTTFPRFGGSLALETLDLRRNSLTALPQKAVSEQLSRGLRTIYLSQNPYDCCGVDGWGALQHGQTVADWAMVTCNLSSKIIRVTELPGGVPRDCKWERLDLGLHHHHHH
# T5 sequence (P01137 30-390 limits assumed, chain 2 of 2): as the sequence (chain, as listed by the source limits assumed, chain 2 of 2) above
# Assay: BLI (Octet)
row,Kd [nM],Binder
1,0.555,B2
2,0.545,B3
3,0.775,B4
4,0.692,B5
5,0.545,B6
6,0.302,B7
7,0.698,B8
8,0.41,B9
9,0.339,B10
10,0.36,B11

# Target: hLTBP1-proTGFβ1 complex made by transfected cells (cell-based potency assay) (human, UniProt Q14766 347-1721; P01137 30-390)
# Sequence (Q14766 347-1721, chain 1 of 2): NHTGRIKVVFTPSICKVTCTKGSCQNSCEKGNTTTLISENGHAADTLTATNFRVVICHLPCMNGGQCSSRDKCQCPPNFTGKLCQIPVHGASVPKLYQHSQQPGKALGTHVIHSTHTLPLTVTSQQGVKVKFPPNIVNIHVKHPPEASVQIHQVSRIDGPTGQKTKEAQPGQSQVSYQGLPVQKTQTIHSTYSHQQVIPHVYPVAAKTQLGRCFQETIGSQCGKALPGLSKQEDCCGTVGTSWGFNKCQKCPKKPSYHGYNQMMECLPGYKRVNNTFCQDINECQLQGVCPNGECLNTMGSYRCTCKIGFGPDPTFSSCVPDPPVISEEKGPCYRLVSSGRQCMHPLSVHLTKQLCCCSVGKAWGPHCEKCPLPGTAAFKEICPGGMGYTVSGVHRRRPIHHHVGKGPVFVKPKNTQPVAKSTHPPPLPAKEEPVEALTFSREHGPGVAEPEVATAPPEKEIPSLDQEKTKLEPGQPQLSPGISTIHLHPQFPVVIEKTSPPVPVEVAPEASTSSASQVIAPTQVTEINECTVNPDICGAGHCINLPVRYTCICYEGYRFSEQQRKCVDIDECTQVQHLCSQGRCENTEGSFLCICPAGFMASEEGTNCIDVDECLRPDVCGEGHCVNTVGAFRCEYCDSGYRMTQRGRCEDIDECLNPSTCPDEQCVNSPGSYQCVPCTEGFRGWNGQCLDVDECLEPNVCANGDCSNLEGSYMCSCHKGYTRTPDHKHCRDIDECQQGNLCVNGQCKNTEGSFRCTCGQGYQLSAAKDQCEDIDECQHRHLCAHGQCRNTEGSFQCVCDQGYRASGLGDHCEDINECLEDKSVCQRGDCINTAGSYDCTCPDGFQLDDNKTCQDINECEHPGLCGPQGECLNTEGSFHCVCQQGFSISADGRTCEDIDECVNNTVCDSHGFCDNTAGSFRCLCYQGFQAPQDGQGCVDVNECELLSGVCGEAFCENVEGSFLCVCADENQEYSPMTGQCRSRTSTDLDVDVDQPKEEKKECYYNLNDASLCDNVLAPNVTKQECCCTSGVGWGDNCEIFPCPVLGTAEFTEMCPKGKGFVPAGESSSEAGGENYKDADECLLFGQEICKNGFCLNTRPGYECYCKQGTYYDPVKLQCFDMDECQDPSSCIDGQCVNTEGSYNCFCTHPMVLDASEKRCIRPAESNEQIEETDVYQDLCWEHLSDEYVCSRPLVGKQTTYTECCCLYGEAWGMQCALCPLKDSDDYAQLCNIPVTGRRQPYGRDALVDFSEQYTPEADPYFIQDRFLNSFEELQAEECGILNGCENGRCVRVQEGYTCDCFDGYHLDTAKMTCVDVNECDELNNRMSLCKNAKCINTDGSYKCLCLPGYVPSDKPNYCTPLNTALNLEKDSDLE
# Sequence (P01137 30-390, chain 2 of 2): as the sequence (chain, as listed by the source limits assumed, chain 2 of 2) above
# Assay: cell-based or functional assay
row,"IC50, reporter cell assay of TGFβ1 activation [nM]",Binder
1,2.95,B2
2,6.25,B3
3,3.79,B4
4,1.66,B5
5,1.85,B6
6,5.22,B12
7,0.471,B7
8,1.56,B10
9,0.713,B11

# Target: hLTBP3-proTGFβ1 complex made by transfected cells (cell-based potency assay) (human, UniProt Q9NS15 44-1303; P01137 30-390)
# Assay: cell-based or functional assay
row,"IC50, reporter cell assay of TGFβ1 activation [nM]",Binder
1,1.56,B2
2,2.71,B3
3,1.55,B4
4,1.6,B5
5,1.18,B6
6,5.65,B12
7,0.803,B7
8,1.11,B10
9,0.716,B11

# Target: hGARP-proTGFβ1 complex on cells (human, UniProt Q14392 20-662; P01137 30-390)
# Assay: cell-based or functional assay
row,"IC50, reporter cell assay of TGFβ1 activation [nM]",Binder
1,0.79,B2
2,3.71,B3
3,1.08,B4
4,1.34,B5
5,0.387,B6
6,0.822,B12
7,0.264,B7
8,0.198,B10
9,0.262,B11

# Target: hLRRC33-proTGFβ1 complex on cells (human, UniProt Q86YC3 19-692; P01137 30-390)
# Sequence (Q86YC3 19-692 limits assumed, chain 1 of 2): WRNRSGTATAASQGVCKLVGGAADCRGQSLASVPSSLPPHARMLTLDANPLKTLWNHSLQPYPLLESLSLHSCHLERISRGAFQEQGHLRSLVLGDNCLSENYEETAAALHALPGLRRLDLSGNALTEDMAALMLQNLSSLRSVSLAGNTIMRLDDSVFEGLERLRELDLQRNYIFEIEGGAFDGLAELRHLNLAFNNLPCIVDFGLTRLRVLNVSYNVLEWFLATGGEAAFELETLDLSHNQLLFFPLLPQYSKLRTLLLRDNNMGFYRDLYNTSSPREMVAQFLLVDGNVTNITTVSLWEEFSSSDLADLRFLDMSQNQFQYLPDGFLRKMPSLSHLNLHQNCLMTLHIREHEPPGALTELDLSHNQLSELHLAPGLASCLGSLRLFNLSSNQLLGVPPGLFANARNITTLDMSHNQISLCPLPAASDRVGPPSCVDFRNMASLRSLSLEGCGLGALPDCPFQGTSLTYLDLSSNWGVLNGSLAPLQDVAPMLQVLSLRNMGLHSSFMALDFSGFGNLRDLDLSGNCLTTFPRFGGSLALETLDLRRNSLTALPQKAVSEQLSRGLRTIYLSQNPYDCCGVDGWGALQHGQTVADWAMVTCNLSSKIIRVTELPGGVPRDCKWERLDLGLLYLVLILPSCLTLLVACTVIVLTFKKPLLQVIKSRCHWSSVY
# Sequence (P01137 30-390 limits assumed, chain 2 of 2): as the sequence (chain, as listed by the source limits assumed, chain 2 of 2) above
# Assay: cell-based or functional assay
row,"IC50, reporter cell assay of TGFβ1 activation [nM]",Binder
1,1.27,B2
2,5.37,B3
3,2.43,B4
4,0.401,B5
5,1.35,B6
6,3.5,B12
7,0.458,B7
8,0.738,B10
9,0.341,B11

# Target: T6, murine GARP-proTGFβ1 complex (mouse, UniProt G3XA59 18-628; P04202 30-390)
# T6 construct: Soluble murine complex; also called mGARP-proTGFβ1
# Assay: BLI screen of human and murine LLCs
row,binding result,Binder
1,binds,B12

# Target: T2, human LTBP1-proTGFβ1 complex
# Assay: MSD-SET, solution equilibrium titration
# Experimental: (§1) MSD-SET assays were performed to measure affinities of the antibodies at equilibrium. Briefly, each test antibody was diluted 3-5 fold and samples were mixed with biotinylated antigen in a 48-well dish. The SET samples were equilibrated for 20-24 hours at room temperature. Meanwhile, a capture plate was coated with IgG (20 nM) and incubated overnight at 4° C. or 30 minutes at room temperature, followed by a blocking step with 5% BSA. After the capture plate was washed three times, SET samples were added and incubated for 150 seconds. The plate was washed once to remove unbound complexes. 250 ng/ml SA-Sulfotag was added then washed 3 times. 2× Read Buffer was added, and signals from the labeled bound complexes were read with the use of QuickPlex™ SQ 120 instrument.
row,Kd [nM],Binder
1,1.2,B2
2,0.27,B3
3,0.78,B4
4,2.1,B5
5,0.22,B6
6,4.6,B12
7,0.012,B7
8,0.037,B8
9,0.019,B9
10,0.011,B10
11,0.028,B11

# Target: T3, human LTBP3-proTGFβ1 complex
# Assay: MSD-SET, solution equilibrium titration
# Experimental: as §1
row,Kd [nM],Binder
1,1.2,B2
2,0.26,B3
3,0.66,B4
4,2.7,B5
5,0.18,B6
6,5.5,B12
7,0.011,B7
8,0.026,B8
9,0.014,B9
10,0.007,B10
11,0.023,B11

# Target: T4, human GARP-proTGFβ1 complex
# Assay: MSD-SET, solution equilibrium titration
# Experimental: as §1
row,Kd [nM],Binder
1,3,B2
2,1.1,B3
3,1.7,B4
4,3.8,B5
5,1.1,B6
6,2.5,B12
7,0.0055,B7
8,0.015,B8
9,0.019,B9
10,0.0078,B10
11,0.014,B11

# Target: T5, human LRRC33-proTGFβ1 complex
# Assay: MSD-SET, solution equilibrium titration
# Experimental: as §1
row,Kd [nM],Binder
1,6.3,B2
2,1.1,B3
3,3.2,B4
4,5.7,B5
5,1.6,B6
6,2.1,B12
7,0.043,B7
8,0.087,B8
9,0.096,B9
10,0.046,B10
11,0.13,B11

# Target: T7, human proTGFβ1 C4S/R249A (human, UniProt P01137 30-390)
# T7 construct: Expressed with kifunensine and treated with endoglycosidase H; also called uncleavable human proTGFβ1 variant
# Assay: X-ray crystal structure of the ternary complex
# Source text: In this work, an uncleavable human proTGFβ1 C4S/R249A variant was used that spans residues 30-390 based on the full-length sequence of human proTGFβ1 (Uniprot ID P01137). The numbering system that will be used for the rest of this document will designate position 1 as the first amino acid residue after the removal of the signal sequence for proTGFβ isoforms. The C4S mutation renders proTGFβ1 not capable of covalent crosslinking to any known presenting molecules, e.g. LTBPs and GARP, while the R249A renders proTGFβ1 resistant to proprotein convertase/furin protease cleavage, thus maintaining proTGFβ1 in its uncleaved, proprotein form. […] The AbX Fab in this context was used as an auxiliary protein, which acts as a crystallization chaperone to increase the probability of obtaining protein crystals.
# Crystallization experiments were performed at room temperature in a sitting drop format. […] X-ray diffraction data were collected at the SER-CAT beamline 22-ID at the Advanced Photon Source (APS) at the Argonne National Laboratory (ANL) using a Dectris Eiger 16M detector. The diffraction images were processed with X-ray Detector Software (XDS) in space group C2221 with an asymmetric unit containing one half of a 2:2:2 complex. The structure of the ternary complex was solved by molecular replacement using Phaser.
row,binding result,Binder
1,binds,B13
